Molecular target: T1, EsCas13d, nuclease-dead (Eubacterium siraeum, UniProt B0MS50, R295A;H300A;R849A;H854A)
T1 sequence: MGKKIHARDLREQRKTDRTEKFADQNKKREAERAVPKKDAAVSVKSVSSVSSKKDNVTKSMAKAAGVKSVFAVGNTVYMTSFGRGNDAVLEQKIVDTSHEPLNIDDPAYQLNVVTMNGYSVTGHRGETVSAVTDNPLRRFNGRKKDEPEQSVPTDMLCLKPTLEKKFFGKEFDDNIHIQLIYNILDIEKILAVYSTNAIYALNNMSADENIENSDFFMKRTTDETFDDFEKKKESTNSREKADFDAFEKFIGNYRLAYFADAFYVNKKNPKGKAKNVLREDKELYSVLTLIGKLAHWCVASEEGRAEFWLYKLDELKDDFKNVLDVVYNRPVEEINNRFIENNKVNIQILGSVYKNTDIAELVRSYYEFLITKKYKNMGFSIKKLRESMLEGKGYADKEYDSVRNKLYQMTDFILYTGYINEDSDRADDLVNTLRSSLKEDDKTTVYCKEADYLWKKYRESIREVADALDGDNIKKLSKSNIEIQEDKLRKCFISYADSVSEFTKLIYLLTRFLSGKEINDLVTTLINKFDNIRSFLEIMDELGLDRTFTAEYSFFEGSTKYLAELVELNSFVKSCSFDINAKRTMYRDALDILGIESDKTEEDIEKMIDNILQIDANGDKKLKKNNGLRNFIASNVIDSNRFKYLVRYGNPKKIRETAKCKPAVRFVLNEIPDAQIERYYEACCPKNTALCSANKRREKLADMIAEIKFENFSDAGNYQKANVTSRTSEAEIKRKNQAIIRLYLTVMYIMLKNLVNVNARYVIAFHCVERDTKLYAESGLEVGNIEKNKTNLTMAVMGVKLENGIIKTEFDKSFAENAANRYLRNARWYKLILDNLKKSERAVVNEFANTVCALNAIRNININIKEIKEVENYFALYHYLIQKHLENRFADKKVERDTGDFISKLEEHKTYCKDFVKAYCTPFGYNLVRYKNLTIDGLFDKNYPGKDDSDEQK
Assay: crRNA (strand 1, pre-loaded); Mg2+; 40 mM Tris-HCl pH 7.5, 150 mM NaCl, 6 mM MgCl2, 1 mM DTT, 0.1% Tween-20, 0.2 mg/ml BSA; 25 C; 10 min per concentration, then washed
Conditions: tags: His6-TwinStrep-SUMO cleaved; N-terminal SNAP kept (SNAP-Surface 488); label: 3' end held by stalled T7 RNA polymerase

B1: target 1 insA 3' of 7,insC 3' of 1 (mixed)
RNA 1: CACCCGUGCAAAAAUGCAGGGGUCUAAAACUGAGCGGAUAACCUCUCUAUGG
RNA 2: GGGAAUGGAUCCACAUCUACGAAUUCGUACCAUAGAGAGGUUAUCACGCUCACCCGAGAUCGGAAGAGCACACGU
  Kd: 5.8 ± 0.4 nM

B2: target 1 insC 3' of 20,insC 3' of 17 (mixed)
RNA 1: CACCCGUGCAAAAAUGCAGGGGUCUAAAACUGAGCGGAUAACCUCUCUAUGG
RNA 2: GGGAAUGGAUCCACAUCUACGAAUUCGUACCACUAGCAGAGGUUAUCCGCUCACCGAGAUCGGAAGAGCACACGU
  Kd: 4.9 ± 0.6 nM

B3: target 1 insU 3' of 18,insU 3' of 2 (mixed)
RNA 1: CACCCGUGCAAAAAUGCAGGGGUCUAAAACUGAGCGGAUAACCUCUCUAUGG
RNA 2: GGGAAUGGAUCCACAUCUACGAAUUCGUACCAUAUGAGAGGUUAUCCGCUCUACCGAGAUCGGAAGAGCACACGU
  Kd: 25.8 ± 2.4 nM

B4: target 1 U3A,A20C (mixed)
RNA 1: CACCCGUGCAAAAAUGCAGGGGUCUAAAACUGAGCGGAUAACCUCUCUAUGG
RNA 2: GGGAAUGGAUCCACAUCUACGAAUUCGUACCCUAGAGAGGUUAUCCGCACACCGAGAUCGGAAGAGCACACGU
  Kd: 26.3 ± 1.6 nM

B5: target 1 insC 3' of 19,insA 3' of 6 (mixed)
RNA 1: CACCCGUGCAAAAAUGCAGGGGUCUAAAACUGAGCGGAUAACCUCUCUAUGG
RNA 2: GGGAAUGGAUCCACAUCUACGAAUUCGUACCAUCAGAGAGGUUAUCCAGCUCACCGAGAUCGGAAGAGCACACGU
  Kd: 38.2 ± 2.2 nM

B6: target 1 complement block 9-11 (mixed)
RNA 1: CACCCGUGCAAAAAUGCAGGGGUCUAAAACUGAGCGGAUAACCUCUCUAUGG
RNA 2: GGGAAUGGAUCCACAUCUACGAAUUCGUACCAUAGAGAGGAAUUCCGCUCACCGAGAUCGGAAGAGCACACGU
  Kd: 22.9 ± 1.5 nM

B7: target 1 C6U,A9G (mixed)
RNA 1: CACCCGUGCAAAAAUGCAGGGGUCUAAAACUGAGCGGAUAACCUCUCUAUGG
RNA 2: GGGAAUGGAUCCACAUCUACGAAUUCGUACCAUAGAGAGGUUGUCUGCUCACCGAGAUCGGAAGAGCACACGU
  Kd: 14.2 ± 0.9 nM

B8: target 1 insC 3' of 14,insC 3' of 8 (mixed)
RNA 1: CACCCGUGCAAAAAUGCAGGGGUCUAAAACUGAGCGGAUAACCUCUCUAUGG
RNA 2: GGGAAUGGAUCCACAUCUACGAAUUCGUACCAUAGAGACGGUUAUCCCGCUCACCGAGAUCGGAAGAGCACACGU
  Kd: 48 ± 7 nM

B9: target 1 U3G,A20C (mixed)
RNA 1: CACCCGUGCAAAAAUGCAGGGGUCUAAAACUGAGCGGAUAACCUCUCUAUGG
RNA 2: GGGAAUGGAUCCACAUCUACGAAUUCGUACCCUAGAGAGGUUAUCCGCGCACCGAGAUCGGAAGAGCACACGU
  Kd: 28.1 ± 2.2 nM

B10: target 1 insC 3' of 22,insC 3' of 11 (mixed)
RNA 1: CACCCGUGCAAAAAUGCAGGGGUCUAAAACUGAGCGGAUAACCUCUCUAUGG
RNA 2: GGGAAUGGAUCCACAUCUACGAAUUCGUACCCAUAGAGAGGUCUAUCCGCUCACCGAGAUCGGAAGAGCACACGU
  Kd: 50 ± 6 nM

B11: target 1 insG 3' of 16,insA 3' of 12 (mixed)
RNA 1: CACCCGUGCAAAAAUGCAGGGGUCUAAAACUGAGCGGAUAACCUCUCUAUGG
RNA 2: GGGAAUGGAUCCACAUCUACGAAUUCGUACCAUAGAGGAGGAUUAUCCGCUCACCGAGAUCGGAAGAGCACACGU
  Kd: 45 ± 9 nM

B12: target 1 insG 3' of 19,insA 3' of 12 (mixed)
RNA 1: CACCCGUGCAAAAAUGCAGGGGUCUAAAACUGAGCGGAUAACCUCUCUAUGG
RNA 2: GGGAAUGGAUCCACAUCUACGAAUUCGUACCAUGAGAGAGGAUUAUCCGCUCACCGAGAUCGGAAGAGCACACGU
  Kd: ~80 nM

B13: target 1 G5U,G12U (mixed)
RNA 1: CACCCGUGCAAAAAUGCAGGGGUCUAAAACUGAGCGGAUAACCUCUCUAUGG
RNA 2: GGGAAUGGAUCCACAUCUACGAAUUCGUACCAUAGAGAGUUUAUCCUCUCACCGAGAUCGGAAGAGCACACGU
  Kd: 41 ± 7 nM

B14: target 1 U8C,G15U (mixed)
RNA 1: CACCCGUGCAAAAAUGCAGGGGUCUAAAACUGAGCGGAUAACCUCUCUAUGG
RNA 2: GGGAAUGGAUCCACAUCUACGAAUUCGUACCAUAGAUAGGUUACCCGCUCACCGAGAUCGGAAGAGCACACGU
  Kd: 34.6 ± 2.5 nM

B15: target 1 insU 3' of 20,insU 3' of 2 (mixed)
RNA 1: CACCCGUGCAAAAAUGCAGGGGUCUAAAACUGAGCGGAUAACCUCUCUAUGG
RNA 2: GGGAAUGGAUCCACAUCUACGAAUUCGUACCAUUAGAGAGGUUAUCCGCUCUACCGAGAUCGGAAGAGCACACGU
  Kd: 16.3 ± 1.6 nM

B16: target 1 A1C,A16C (mixed)
RNA 1: CACCCGUGCAAAAAUGCAGGGGUCUAAAACUGAGCGGAUAACCUCUCUAUGG
RNA 2: GGGAAUGGAUCCACAUCUACGAAUUCGUACCAUAGCGAGGUUAUCCGCUCCCCGAGAUCGGAAGAGCACACGU
  Kd: 42 ± 9 nM

B17: target 1 A1G,U19A (mixed)
RNA 1: CACCCGUGCAAAAAUGCAGGGGUCUAAAACUGAGCGGAUAACCUCUCUAUGG
RNA 2: GGGAAUGGAUCCACAUCUACGAAUUCGUACCAAAGAGAGGUUAUCCGCUCGCCGAGAUCGGAAGAGCACACGU
  Kd: 29 ± 4 nM

B18: target 1 complement block 1-11 (mixed)
RNA 1: CACCCGUGCAAAAAUGCAGGGGUCUAAAACUGAGCGGAUAACCUCUCUAUGG
RNA 2: GGGAAUGGAUCCACAUCUACGAAUUCGUACCAUAGAGAGGAAUAGGCGAGUCCGAGAUCGGAAGAGCACACGU
  Kd: 13.3 ± 0.5 nM

B19: target 1 insG 3' of 20,insC 3' of 20 (mixed)
RNA 1: CACCCGUGCAAAAAUGCAGGGGUCUAAAACUGAGCGGAUAACCUCUCUAUGG
RNA 2: GGGAAUGGAUCCACAUCUACGAAUUCGUACCAGCUAGAGAGGUUAUCCGCUCACCGAGAUCGGAAGAGCACACGU
  Kd: 50 ± 7 nM

B20: target 1 insU 3' of 14,insG 3' of 4 (mixed)
RNA 1: CACCCGUGCAAAAAUGCAGGGGUCUAAAACUGAGCGGAUAACCUCUCUAUGG
RNA 2: GGGAAUGGAUCCACAUCUACGAAUUCGUACCAUAGAGAUGGUUAUCCGCGUCACCGAGAUCGGAAGAGCACACGU
  Kd: 31.8 ± 2.8 nM

B21: target 1 insG 3' of 3,insA 3' of 3 (mixed)
RNA 1: CACCCGUGCAAAAAUGCAGGGGUCUAAAACUGAGCGGAUAACCUCUCUAUGG
RNA 2: GGGAAUGGAUCCACAUCUACGAAUUCGUACCAUAGAGAGGUUAUCCGCUGACACCGAGAUCGGAAGAGCACACGU
  Kd: 6.1 ± 0.4 nM

B22: target 1 complement block 2-11 (mixed)
RNA 1: CACCCGUGCAAAAAUGCAGGGGUCUAAAACUGAGCGGAUAACCUCUCUAUGG
RNA 2: GGGAAUGGAUCCACAUCUACGAAUUCGUACCAUAGAGAGGAAUAGGCGAGACCGAGAUCGGAAGAGCACACGU
  Kd: 12.3 ± 0.33 nM

B23: target 1 insA 3' of 15,insA 3' of 15 (mixed)
RNA 1: CACCCGUGCAAAAAUGCAGGGGUCUAAAACUGAGCGGAUAACCUCUCUAUGG
RNA 2: GGGAAUGGAUCCACAUCUACGAAUUCGUACCAUAGAGAAAGGUUAUCCGCUCACCGAGAUCGGAAGAGCACACGU
  Kd: 6.1 ± 0.5 nM

B24: target 1 insA 3' of 10,insU 3' of 6 (mixed)
RNA 1: CACCCGUGCAAAAAUGCAGGGGUCUAAAACUGAGCGGAUAACCUCUCUAUGG
RNA 2: GGGAAUGGAUCCACAUCUACGAAUUCGUACCAUAGAGAGGUUAAUCCUGCUCACCGAGAUCGGAAGAGCACACGU
  Kd: 13.9 ± 0.5 nM

B25: target 1 insA 3' of 6,insU 3' of 5 (mixed)
RNA 1: CACCCGUGCAAAAAUGCAGGGGUCUAAAACUGAGCGGAUAACCUCUCUAUGG
RNA 2: GGGAAUGGAUCCACAUCUACGAAUUCGUACCAUAGAGAGGUUAUCCAGUCUCACCGAGAUCGGAAGAGCACACGU
  Kd: 41 ± 5 nM

B26: target 1 insU 3' of 1,insU 3' of 1 (mixed)
RNA 1: CACCCGUGCAAAAAUGCAGGGGUCUAAAACUGAGCGGAUAACCUCUCUAUGG
RNA 2: GGGAAUGGAUCCACAUCUACGAAUUCGUACCAUAGAGAGGUUAUCCGCUCAUUCCGAGAUCGGAAGAGCACACGU
  Kd: 11.3 ± 0.9 nM

B27: target 1 C7U,U8C (mixed)
RNA 1: CACCCGUGCAAAAAUGCAGGGGUCUAAAACUGAGCGGAUAACCUCUCUAUGG
RNA 2: GGGAAUGGAUCCACAUCUACGAAUUCGUACCAUAGAGAGGUUACUCGCUCACCGAGAUCGGAAGAGCACACGU
  Kd: 8.7 ± 0.5 nM

B28: target 1 insC 3' of 18,insC 3' of 13 (mixed)
RNA 1: CACCCGUGCAAAAAUGCAGGGGUCUAAAACUGAGCGGAUAACCUCUCUAUGG
RNA 2: GGGAAUGGAUCCACAUCUACGAAUUCGUACCAUACGAGAGCGUUAUCCGCUCACCGAGAUCGGAAGAGCACACGU
  Kd: 49 ± 6 nM
